Measured values published in the DeepSol protein solubility set.

test: soluble on expression in E. coli; label from the status in PepcDB or PDB records

| Sequence | soluble on expression in E. coli |
| --- | --- |
| AHHHHHHGSRPKVGVLLKMKREALEELEKYAEVEVIPYPSEEELKNKIHEFDGIIVSPVTKITKDVLEKAERLKVISCHSAGYDHIDVEEATRKGIYVTKVSGLLSEAVAEFAVGLLINLMRKIHYADKLIRRGEWESHVKIWTGFKGIESLYGKKVGILGMGAIGKAIARRLIPFGVELYYWSRHRKVDVESELHATYMDIDELLEKSDIVILALPLTKDTYHIINEERVKKLEGKYLVNIGRGALVDERAITEAIKQGKLKGYATDVFENEPVREHELFKYEWETVLTPHYAGLAVEAQEDVGFRAVENLISIFRGIVPEDLVNKEVLKIRPIESVKML | not soluble |
| GSHSLRYFVTAVSRPGHGKPRYMEVGYVDDTEFVRFDSDAENPRYEPRTPWMEQVEPEYWEGQTQIAKGNEQSSRVDLRTALRYYNQSAGGSHTIQRMRGCEVGSDGRLLRGYQQVAYDGRDYIALNEDLKTWTAADMAALITKHKWEQAGAAERDRAYLEGACVEWLRRYLELGNATLLRTDSPKAHVTHHSRPKDKVTLRCWALGFYPADITLTWQLNGEELTQDMELVETRPAGDGTFQKWASVVVPLGKEQNYTCHVYHEGLPEPLTLRW | soluble |
| MSDSKCDSQFYSVQVADSTFTVLKRYQQLKPIGSGAQGIVCAAFDTVLGINVAVKKLSRPFQNQTHAKRAYRELVLLKCVNHKNIISLLNVFTPQKTLEEFQDVYLVMELMDANLCQVIHMELDHERMSYLLYQMLCGIKHLHSAGIIHRDLKPSNIVVKSDCTLKILDFGLARTACTNFMMTPYVVTRYYRAPEVILGMGYKENVDIWSVGCIMGELVKGCVIFQGTDHIDQWNKVIEQLGTPSAEFMKKLQPTVRNYVENRPKYPGIKFEELFPDWIFPSESERDKIKTSQARDLLSKMLVIDPDKRISVDEALRHPYITVWYDPAEAEAPPPQIYDAQLEEREHAIEEWKELIYKEVMDWEERSKNGVVKDQPSDAAVSSNATPSQSSSINDISSMSTEQTLASDTDSSLDASTGPLEGCR | soluble |
| MGSDKIHHHHHHMKPNNWVSSSQATELLSKQLVTWPLAEKNYKALEAVQVKSFDMGGFSIRAQFNPARIVSTGAKVDARSLKERKCFLCPENLPVEQERLPFGFRHLVLCNPYPIFPQHFTIPTRKHTPQLILPQWNDFLELTRRLAPFTVFYNGPRSGASAPDHAHFQAVTRGIMPLDEEVTQFIRQSYASVYDNRIYPLTGNLRPGLVIQAATEEAATRLFKKIYAALPILPGEPEPMMNIFGSYYDNNWVITVIPRKRHRPWQYEAEGNDHLLSSPGAADIGGLFITPLEKDFKKINPELLRDVYQQVCLNDRDVEEIFVHLSSN | not soluble |
| MSELLSSVSQQLLAPGGLELDSLPGILHELNGPGIDAADLYFQSQVSESWMLEDGIVKEGSFNLDQGVGVRAQSGEKTGFAYSNAITAEALKQAAVAARSISRAGQNGSVQAFKAVVPARLYAGENPLDVLSRAEKVELLKQIDAATRALDPRIQQVTVSMAGVWEQILVAASDGSLAADIRPLVRFNVSVIVEQNGRRERGGHGGGGRTDYRYFLQEDRAMGYAREALRQALVNLEAIPAPAGTLPVVMGAGWSGVLLHEAVGHGLEGDFNRKGSSAYSGRVGEKVASSLCTIVDDGTLAGRRGSLSVDDEGTPSNCNVLIENGVLKGYMQDKLNARLMGVARTGNGRRESYAHLPMPRMTNTYMLAGESDPQEIIASVEKGIYCANLGGGQVDITSGKFVFSTSEAYLIENGRITTPVKGATLIGNGPEAMSRVSMVGNDLALDSGVGTCGKDGQSVPVGVGQPTLKIDAITVGGTGA | not soluble |
| MYTLIIPAAGQGKRMGAGKNKLFLLINEVPIIVHTLRAFEKDKACKNIIMAINEEERPYFEELMQKYPVEKPVQFIQGGAERQDSVYNAIQHTTDVEYVLVHDGARPFVTNKVIQDVLTAAEKYGASICAVPVKDTVKKVEQGVVVETVERSQLKAVQTPQGFSVSLLLEAHRSAKQSCFLGTDDASLVERIGKQVGVVEGSYYNIKVTTPEDLLIAESFLHVQKK | not soluble |
| MESKKRSSDKKSTEVDSMSDKESLYVSASDQPPAEITIKLEKDTKRKITIISEVENPKRARRGSADLRRQAIVNSAIRSAQSTASSRSRSRSRSRSRSTMNQQIRLARTRSASGGKLRRSRSARRRSPSSSASRSRSRSTSRTRAQSIPIRYRDRPEKIEKPIQPLPPLRLPTHLTKKSSVGSKKLPPPDCINLPSPLFILTEQQVIGASEKKTVQFVTKVLLTSKKLSLDDRKLLFAEMVEAEYVGTSRSSTDLNKSSDDEPEEEFATKIHYSSKGIYIHTVQNVRKIRSGKTSSITEEKSYANICKTKISGDHGKSTEGFLNVQCSETISVVDQKYIRSEEFKIGLTGVNVSGNVSINSSKTTFDPTKTITFSEDLMFDSKNIGITIRHSSVAEMKEMWHHEMGSFGEETSEYRELKFFFDEKKKDDNKTVGKSVVSILQGTKPSAPPASTSSSSKNSSSINSPKTPNISGSSRRSRSRAKRHKALQKRDSKTNRTPSPDRQSCKKDARPDQDPIKLSEIKVSEHVDSTGNETFYQSFPKATSTPKSPASSLNSSVLESKVKNSMQKTPDEGPSRRGAMSIRERSVSRNGDNEIDLDKSLSLKKPSASKNLASLLEKKEEARKTDVTSSMISSKPPTSPGTSVYMYNTGSANSTFMSAKDLHKERVAASTGPRSASKSPKGTLRVKETKVIREVRQEDGKPPEISEKKEETVKEEKVNLSERLRARSRASSPATPTLKRTFNQTDESNIVTLSAVKETHQTLEMTPIKVNSETVPSTSYGQRAFPESVQLDMLIDKKRLVLNVNFMLLAEKHPEVEILGFTFKGQKLWEKSSEWNLTSANTTSHTKTIARQASNILGDEEKKDEEQK | not soluble |
| MIAIVAGNSAGVSRVANQPLEHEPSYWAATAEIEQPSPALEHDLDVDVAIIGAGYTGLSTAYHLKKDHGITATVVEANRIGWGCSGRNGGFAMIGVGKDTYNAWISKVGLEQARKTFEFGRDAVRTLRTVLQENNINAASGNEGFLLTAHRRARISELIETQRQLKHYFGFDTEYLDAHDVRTHYLSGTQIFGALHYPEHFPIHPMRYAQGLGRRVRQLGVPIYENSPVNTWRRAGRLHELLTPRGVVRAKKVVIATNGYTPDGLHPIVRGRLMNVLSNIVVTAPLSEGQLAATRWQTHKMVVDTRNLRSYFRLLEDNRIMFGARGGISDTAASRATMKAWLLTQLAKQFPGLGAIGADYFWQGWVAIPRDKGPHIHVADNGSVAYWLGCTGTGVAMSTHAGKLLADSLATERRPDVPALVGAPLPRYEIPALRKLYQRAAYSYFYLKDEFLLEHHHHHH | not soluble |
| TERFRLTLAQLNPTVGDLAGNAALARRAWDEARAAGSDMLALTEMFVTGYQTQDLVLRRAFVEEAMATIERLAADCAEGPAIGIGGPCLEDGRLMNAYWVLEGGRVSARVFKHHLPNAEVFDEKRVFSSGEVHGPCRVGPLRIGIPICEDSWHPDVCETLAETGAEILLVPNGSPYHREKLDVRVNLMVTRVVETGLPLVYLNMVGGQDDQVFDGASFVLNPHGRLMAQLPAFEEALVHVDFE | not soluble |
| MGSDKIHHHHHHMRFGYFDDVNREYVITTPQTPYPWINYLGTEDFFSIISHMAGGYCFYKDARLRRITRFRYNNVPTDAGGRYFYIREENGDFWTPTWMPVRKDLSFFEARHGLGYTKITGERNGLRATITYFVPRHFTGEVHYLVLENKAEKPRKIKLFSFIEFCLWNALDDMTNFQRNYSTGEVEIEGSVIYHKTEYRERRNHYAFYSVNQPIDGFDTDRESFIGLYSGFEAPQAVVEGKPRNSVASGWAPIASHYLEIELAPSEKKELIFILGYVENPEEEKWEKPGVINKKRAKEMIEKFKTGEDVEHALKELREYWDDLLGRIQVETHDEKLNRMVNIWNQYQCMVTFNISRSASYFESGISRGIGFRDSNQDILGFVHMIPEKARQRILDLASIQFEDGSTYHQFQPLTKKGNNEIGGGFNDDPLWLILSTSAYIKETGDWSILGEEVPFDNDPNKKASLFEHLKRSFYFTVNNLGPHGLPLIGRADWNDCLNLNCFSKNPDESFQTTVNALDGRVAESVFIAGLFVLAGKEFVEICKRRGLEEEAREAEKHVNKMIETTLKYGWDGEWFLRAYDAFGRKVGSKECEEGKIFIEPQGMCVMAGIGVDNGYAEKALDSVKKYLDTPYGLVLQQPAYSRYYIELGEISSYPPGYKENAGIFCHNNPWVAIAETVIGRGDRAFEIYRKITPAYLEDISEIHRTEPYVYAQMVAGKDAPRHGEAKNSWLTGTAAWSFVAITQHILGIRPTYDSLVVDPCIPKEWEGFRITRKFRGSIYDITVKNPSHVSKGVKEIIVDGKKIEGQVLPVFEDGKVHRVEVVMG | not soluble |
| MGSDKIHHHHHHMKQLVGIPESMLIPLIARAKEYENEKPIIKDALSKKIFDGLDDMYKNVTCDDMSQIGISIRTVIIDCVTKRLIKDNKDLIVVNIGCGLDTRFQRFNKEKISWIDLDVPESIEIRKTFFKESNSYKMISKSMLDYSWIDDVKNYKFFNSKSDILFIIEGVLMYFDESVMTQLLDTIIKKMGDHNLTFAIEFCSKTIANNTKRHQSVSKLSSQPVFKYGYNDLKKLNEILPNTIRVIHEYNYFDYYKNRWGLFGYCRFIPYLKKRLNNKIVLMKYKVPKRQRH | not soluble |
| MVVFEITILGANGGPTEYGTQCFILKPARTEDPELIAVDGGAGMYQLREMLVQGRNENEGDDELVPSFYEHDREPIEFFIDSKLNIQKGLSKSLLQSLKRQGEHFESANTMKKTYEVFQGITDYYITHPHLDHISGLVVNSPSIYEQENSKKKTIWGLPHTIDVLQKHVFNDLIWPDLTAERSRKLKLKCLNPKEVQKCTIFPWDVIPFKVHHGIGVKTGAPVYSTFYIFRDRKSKDCIIVCGDVEQDRRESEESLLEEFWSYVAENIPLVHLKGILVECSCPLSSKPEQLYGHLSPIYLINELSNLNTLYNSSKGLSGLNVIVTHVKSTPAKRDPRLTILEELRFLAEERNLGDLRISIALEGHTLFL | not soluble |
| MNNQNNNFVDFSEDDDMMDADFLGVVIPDDLMNASLEFQRTEPFSFIPAEEDLAPMEILPNNQGDVEMTAVDKNPDKVLFELRVETQIEPTLNYINAENEAVEWDIKSYYDFDNPQRPAQADEAATYQENGYGFVDFQPFAQQQQPAYNGNEPEFLIQRMQITDETYANAHFHQNEYAIEEKPSLFSPSSTPSYCCTSGPISPAYTPIGNNANACAPTRSRRTSTASNKSGGKIGKVAKLGEKSSGEKRTRMTKAEMSRLTEKEKLERKKEQNRANAKNCVKNRNNSKEELKQTLEMLREKVQEAKRQNEMQENGLLAAYETNIFAVQGNNFPYGSLELFYDQLQGSKAEAVEQVQYDNNGEVVQLEEAFNKTEQDYGQYTSVKKIAGLPQNTFASKKSRAKTAFEIADHQLNLKKEEVELREANAIKVVLNQITRELNRYMDGAKLAEQQAFDENFQQFEPS | not soluble |
| HKRPVPAKRYDNVTILFSGIVGFNAFCSKHASGEGAMKIVNLLNDLYTRFDTLTDSRKNPFVYKVETVGDKYMTVSGLPEPCIHHARSICHLALDMMEIAGQVQVDGESVQITIGIHTGEVVTGVIGQRMPRYCLFGNTVNLTSRTETTGEKGKINVSEYTYRCLMSPENSDPQFHLEHRGPVSMKGKKEPMQVWFLSRKNTGTEETKQDDDAENLYFQ | soluble |
| MGSDKIHHHHHHMKKQNIAGFSKVDDTANPQDFVSYLDAISSLNSIQKYKQQTFTRLEIQAGDRILDVGCGIGDDVRSLAVKVGNAGEVVGIDRSETMVKEAQSRSADLGLPVAYYVGDAEKLEFPDCTFDACRSDRTFQHLLNPRQALTEIVRVTRCGGRVVVSDPDWETLVIDTGDRALTRKILNFHCDSCVNGWIGRQLPTLFQEVGLHKINVDTYTLILTDCTLADKHLGVINAAMKAQQAGLISIAEAANWITNLEAASQAGRFFCAITGFLAFGCKP | not soluble |
| MNIVITGGTGLIGRHLIPRLLELGHQITVVTRNPQKASSVLGPRVTLWQGLADQSNLNGVDAVINLAGEPIADKRWTHKQKERLCQSRWNITQKLVDLINASDTPPSVLISGSATGYYGDLGEVVVTEEEPPHNEFTHKLCARWEEIACRAQSDKTRVCLLRTGVVLAPDGGILGKMLPPFRLGLGGPIGSGRQYLAWIHIDDMVNGILWLLDNELRGPFNMVSPYPVRNEQFAHALGHALHRPAILRVPTTAIRLLMGESSVLVLGGQRALPKRLEEAGFAFRWYDLEEALADVVR | not soluble |
